Seven molecules from publication PMC3737412, “Species-Specific and Cross-Reactive IgG1 Antibody Binding to Viral Capsid Protein 1 (VP1) Antigens of Human Rhinovirus Species A, B and C” (PLoS ONE, 2013) can be followed below.

Experiment in all cases: SEC
For orientation: In gel filtration, larger molecules generally elute earlier.

In data set [1] the target is Recombinant GST-fusion HRV-A34 VP1 with a C-terminal histidine tag (human rhinovirus A34 (HRV-A species)).
The target of data set [2] is Recombinant GST-fusion HRV-B69 VP1 with a C-terminal histidine tag (human rhinovirus B69 (HRV-B species)).
The target of data set [3] is Recombinant GST-fusion HRV-C3 VP1 with a C-terminal histidine tag (human rhinovirus C3 (HRV-C species)).
The target of data set [4] is Recombinant GST-fusion HRV-C5 VP1 with a C-terminal histidine tag (human rhinovirus C5 (HRV-C species)).
The target in data set [5] is Recombinant GST-fusion human poliovirus (HPV) Sabin VP1 with a C-terminal histidine tag (human poliovirus Sabin).
The data set “SEC” deals with the molecule itself.

The stoichiometry N is a count of units in the complex or per binding partner. For “Recombinant GST-fusion HRV-A34 VP1 with a C-terminal histidine tag (natural protein)”, the stoichiometry N in data set [1] came to 10.
Regarding “Recombinant GST-fusion HRV-B69 VP1 with a C-terminal histidine tag (natural protein)”, the stoichiometry N in data set [2] stood at 10.
Take “Recombinant GST-fusion HRV-C3 VP1 with a C-terminal histidine tag (natural protein)”: the stoichiometry N in data set [3] turned out to be 10.
With “Recombinant GST-fusion HRV-C5 VP1 with a C-terminal histidine tag (natural protein)”, the stoichiometry N in data set [4] was 10.
For the molecule “Recombinant GST-fusion human poliovirus (HPV) Sabin VP1 with a C-terminal histidine tag (natural protein)”, the stoichiometry N in data set [5] came to 10.

B1: Recombinant GST-fusion HRV-B14 VP1 with a C-terminal histidine tag (natural protein)
chain: TVALTEGLGDELEEVIVEKTKQTVASISSGPKHTQKVPILTANETGATMPVLPSDSIETRTTYMHFNGSETDVECFLGRAACVHVTEIQNKDATGIDNHREAKLFNDWKINLSSLVQLRKKLELFTYVRFDSEYTILATASQPDSANYSSNLVVQAMYVPPGAPNPKEWDDYTWQSASNPSVFFKVGDTSRFSVPYVGLASAYNCFYDGYSHDDAETQYGITVLNHMGSMAFRIVNEHDEHKTLVKIRVYHRAKHVEAWIPRAPRALPYTSIGRTNYPKNTEPVIKKRKGDIKSY
B1: the “stoichiometry N” value in the data set “SEC” was around 10.

B2: Recombinant GST-fusion HRV-A1B VP1 with a C-terminal histidine tag (natural protein)
chain: SGPIEQNPVENYIDEVLNEVLVVPNIKESHHTTSNSAPLLDAAETGHTSNVQPEDAIETRYVMTSQTRDEMSIESFLGRSGCVHISRIKVDYNDYNGVNKNFTTWKITLQEMAQIRRKFELFTYVRFDSEVTLVPCIAGRGDDIGHVVMQYMYVPPGAPIPKTRNDFSWQSGTNMSIFWQHGQPFPRFSLPFLSIASAYYMFYDGYDGDNSSSKYGSIVTNDMGTICSRIVTEKQEHPVVITTHIYHKAKHTKAWCPRPPRAVPYTHSRVTNYVPKTGDVTTAIVPRASMKTV
B2: the “stoichiometry N” value in the data set “SEC” is around 10.
